Results as given in the PETadex activity labels.

Substrate: BHET
Details: 120 h

B1: unnamed (protein)
chain: MQVRLSSLCRTALVALGLAWAAATAHAQTIDDASDISLAIGPAPTSSALNALNGPFAVSTSIVVLPVGFGGGTIYYPTQAGKYGVIALCPGFTATSTSLAWLARRLASWGFVVVNMNTVTVFDFPSSRATEMRVALRYATNWSSATVRARIDPNRQAVAGHSMGGGGALIAAVRNPELKAAYALMPWSPTYSPTSMKVPTMLVAADADTIAPAALMVRPYYKLIPATVPKAYAELRWGNHFSPILVNTPIGRYGAAWMKRFVDGDTRYQDFLCGAAHQYYANALVFASYLKNCPY
For B1, the plate clearing was “not clears the plate”.

B2: unnamed (protein)
chain: MMAAAGSGGTSGGVSGSTGSAGAAGGATGAAGGGASSTGGFVREDAPTEMSTRAAKGKYTVKSYTSGFSGTGKDFLAGTLYYPTDADPPFASVAVVPGFTALQNSIMDWGPFLASHGIVTMTIDTLTTSDPPAQRADELMGALKSIAGENTRDGSPIKGQLDTTRQCVSGWSMGGGGTLIAASMHPELKCAVSFAAWQPTGGAMNKVPALMFEGTTDPLAAGMSQGFYDQTPDSTPKMIFEVAGASHDVANSPHNSMGIIGEYGLSWFKVYLEGDMRYKQFLLLP
B2 was tested, and the plate clearing was “not clears the plate”.

B3: unnamed (protein)
chain: MKTSRHSTATTTLTRLARLALAAAAVLLSAAAQAQVVIFQENFNSGLGQFTASGTVSTSSGGARMQGCGGGTDGTITSSPISTVGFTNLKLSFDRTTTGLDSGEAGIAEYSVNGSTWTVIESTQSSSGRVTIALPAAAAGQAALRLRFRVNASLSSETYTVDNIPLAGTPGGNSAPGPGGTPYQRGPDPTAASLEASDGPFAVATLTVSSASGYGAGTIYYPTNTEGPFAAIAVVPGYTGTQSSIQWLGPRLASHGFVVITIDTNSLSDNPESRATQLMAALNQLVTLSNTSGHPIYGKVDSNRLGVMGHSMGGGGTLVAARDNPTLKAAIPLAPWYSSTNFSGVTVPTLVVACQSDTVAPVSSHALPMYNSIPSSTDKAYLEISGGDHLCVTTGNGNKAIQGKYVVAWMKRFLDNDTRYSPFLCGAPHQADLSGSAVSEYRDTCPY
B3 was tested, and the plate clearing was “clears the plate (z > 3 vs empty vector)”.

B4: unnamed (protein)
chain: MKHFHRFGATLFRGAAIAGPLALLGVAHAQTTAPTSASLNATAGPLSIASSTVSSLAANGFGGGTIYYPTASGRFGVVAISPGFTASQSTIEWLGRRMASHGFVVITIDTITTLDYPDSRATQLRAALDHVINRASTTVRNKVDPARRAVAGHSMGGGGSLIAAQADSTLKAAYPMTPWNITENFSRVRVPTMIIGADGDTIAPVTSHARPFYASIPNTTFKAYGELNNATHFAPNVTNTPIGRYGVAWMKRFVDGDTRYSTFLCGAEQNRYNTSLVFDQYRSNCPY
In the case of B4, the plate clearing is reported as “not clears the plate”.

B5: unnamed (protein)
chain: MKTTALRIKGLSIAAAIALSTLAPAAFSQTSPPTSASLNATSGPLSVSTASVFLPVGFGGGTIYYPTVAGKYGVIAISPGFTATESSIAWLGRRIATHGFVVITLNTNTTLDQPDSRATQLMAALRYVLNSSGSAVRARIDPTRLAVAGHSMGGGGSLIAARDNPTLKASYPMTPWNISSNFSTVRVPTMIIGADGDTIAPVASHARPFYASLPSSTLKAYGELNGATHFAPNTTNTPIGRYAVTWMKRFVDGDTRYSPFLCGAQHTSYATSRIFDRYNQNCPY
In the case of B5, the plate clearing is reported as “not clears the plate”.

B6: unnamed (protein)
chain: MMNSVMDRFTIAASAVLFSASAWSFTPTPDPDPTPPPQPCQVDCDFTRGPNPTSSYLEANSGPYSVGTVRVSSSVNGFGGGTIHYPTNTTGKMGAIAVVPGFTAGESSIAWWGPRLASHGFVVITIATNSGFDQPASRATQLSNALDYVISQSNSSSSAISGMVDASRLGAMGWSMGGGGALRLASGARLSAAIPLAPWHSGSNPFDQIETPTMIIACESDSTAPVGSHASPFYNRIPASTDKAYLEINNGDHRCANGGGSNGGLLGKYGVSWMKRFIDRDTRYQQFLCGPNHEANTAISEYRDTCAY
For B6, the plate clearing was “clears the plate (z > 3 vs empty vector)”.

B7: unnamed (protein)
chain: MSLDVWEWSTEAGGDIRQWDYLGADNQKWRINDLGNGYHSIISAYNGLSLDVYEWSTSNGGDIRQWDYTGAENQQWAFQPTGTSGGGSTGGGSTSCVSSSDITSSKLSATGASGPYSVRSKGVSNWSASGFGGGTIWYPTNASACGRMPGIAVVPGFLSYESSIRWWGARLASWGYVVITIDTNSIYDQPPSRGRQLSDALDHIIYDSTTRNMVDPNRLGAIGWSMGGGGSIWLANNRPEVKAIIPQAPWYLTTTSTSKPAFYIACESDTVAPTYSHVDDFYRYSTGPKMKIEINNGSHWCANSGNGNEGTLGKAGISWMKRYINGDTRFNQFLCGQENYGSRYDVSDYDYASCP
B7 was tested, and the plate clearing was “not clears the plate”.

B8: unnamed (protein)
chain: MTEKDTSMKFFQATLSLTVGVLLTTALSGTALAESAYLRGPAPTVASVEAPAGPYQVTSQVMKDPVGYKAGTVFYPSDAQGQSFGLIVVAPGFIETQSWNAWWAQYLASHGFVVINIDTQSTLEFPAARAKEELAALNDVVRRSTQPDSPLFGLVDASRQGAMGHSMGGGATLEIAKANPYLKAIVPMAPFQTSGTDYSKLTVPTLIMACKGDVVATASSHSEPIYKSLSPSLDKAYLEMQGGAGHPCTTSVGTSDKVRTLAGKYGLAWFKRFLDEDTRYSQFLCGIPHGLDMFGKVISGYKGNCPY
B8 was tested, and the plate clearing was “not clears the plate”.

B9: unnamed (protein)
chain: MFGCYGCTDGSIVSAPISTVGYSDIKVTFTRSSSGLDLGEAGIAEWSANGSTYTVIESSRSVSGAATFNLPSGAAGQSGLRVRFRVDASLSSEYYTVDTITVEGTSSGGGGGGGVQIGPDPTTSTLESSSGGSFSVQYQSVSSLSTSGFDGGRLYYPTTSGQYGGIVLCPGYTASSSSLAWWGERLASWGFIVLIIDTNSAYDQPSSRATQLMAGVAWLKARNNDSGHALYGKLRESDIAVGGHSMGGGGTLIALRDNPSLKTGFAMTPWNSSTNFSGITQPTFILGCESDSVAPNSSHSIPFYNSISSSVKKVYAEVDGASHFCPNSSDAKMGKYGIAWYKRFLDGDTRFQPWLCPSATGGN
For B9, the plate clearing was “not clears the plate”.

B10: unnamed (protein)
chain: MDWPRPRCVRRRTSNGQRRSTTCRGDIPMSTRVTHSRLTLIRCLALAAPLMCLGLAQAQTSPPTSESLNARSGPLSIASENVSRLAARGFGGGTIYYPRTSGRYGLIAISPGFTATESSVAWIGEKLASHGFVAIVINTNSTLDQPSSRARQLRAALDHAISSASSTVRNRIDPSRQAVAGHSMGGGGSLIAAEDDPSLKAAFPLTPWNTSSSFTRVRVPSMIFGADGDTIAPVAVHARPFYGSIPRTTSKAYAELQSATHFAPNVRNEAIGRYGVAWMKRFMDGDTRYSTFLCGSEHDRYNTSLRFDQFQSNCPY
With B10 the plate clearing was “not clears the plate”.

B11: unnamed (protein)
chain: MNKTILEKIAVGTGALLFSVSAFSFTPSPTPDPTPDPEPCQGECDFTRGPNPTSSYMEANAGPYTVRTSSVSGSVSGFGGGTVHYPTNTSGEMGAIAIVPGFLAGESSISWWGPRLASHGFVVITIATNSVFDQPGSRSTQLGRALDYLVSQSNSSNSPISGMVDASRLGAMGWSMGGGGVLRLASGSRLVAAIPLAPWNTGSNDFDQIQTPTMIMACENDSTARVGTHASPFYNSIPGSTDKAYLEINGGSHSCANGGGSNGGLLGKYGVSWMKLFMDEDTRYSQFLCGPNHAANGAISEYRDTCNY
For B11, the plate clearing was “not clears the plate”.

B12: unnamed (protein)
chain: MKTLFKAAVLCGAMLTSLGVLAQANPYQKGPDPTVSNLEAARGSFAVSSTSISGLSATGFGGGSLHYPTAAGSYGLIAVAPPYLAQSSSIAWLGPRLASHGFVVVMIDVNSTLDFPESRSRQQLAAIDYAIAQSARTTSPIYRKVDTTRRGVSGHSMGGGASILTARNAPANIKGAFPLTPWSSDKNFSSLQVPTGYLACESDTVAANADHSLNFYNRMPASTPKGYYELRGESHFCPQSTANNPVIGKYLVAWMKRFVDNDTRFSPFLSGALPNADLSSRRFSALRTSGL
In the case of B12, the plate clearing is reported as “not clears the plate”.

B13: unnamed (protein)
chain: MNRSILERFVVGTSALLFSISAYSFTPSPTPEPEPEPCQGVCDFTRGPNPTSSYLEASRGPYSVNTVDVSRSVSGFGGGTIHYPTNTTGKMGAIAIVPGFLAAESSIAWWGPRLASHGFVVITIATNSTFDQPASRESQLSRALDYVINQSNSSGSPIAGKVDSTRVGAMGWSMGGGGTLKIASGSRLSAAIPLAPWHTGSNDFDQIDTPTMIIACENDTTAPVGRHASPFYNRISNATDKAYLEINNGGHSCANGGGTNAGLLGKYGVSWMKRFIDKDTRYSQFLCGPNHASNSAISEYRDTCSY
In the case of B13, the plate clearing is reported as “not clears the plate”.

B14: unnamed (protein)
chain: MIIRYISRLALLAGAMTLSASLWAAPVPCRDCSTGYQRGDVPSTAELESRRGPYSVRTIRVSRLVNGFGGGTIYYSTESGGGQGIIAVVPGYLSLETTIQWWGPRLASWGFTVITMDTNTIYDQPTSRASQLSAALNYVINKGNDSRSPLYGLVDPNRTGVIGWSMGGGGALELSTRRNIQATIAQAPWHVGAGTFAQISTPTMILACQLDAVAPTAIHAKAFYNVIPRTTSKAYFEVRAGSHFCANTGYPNTDIIGRNGIAWMKRFIDNDTRYNQFLCGPNFESDFRISKYRDTCNY
With B14 the plate clearing was “not clears the plate”.
